{"source": "paper PMC2793005", "about": "“Dissecting the Role of Critical Residues and Substrate Preference of a Fatty Acyl-CoA Synthetase (FadD13) of Mycobacterium tuberculosis” (PLoS ONE, 2009)", "proteins": {"B1": {"name": "Fatty Acyl-CoA Synthetase FadD13 (Rv3089) of Mycobacterium tuberculosis, N-terminal 6x histidine tag (enzyme)", "chain": "MKNIGWMLRQRATVSPRLQAYVEPSTDVRMTYAQMNALANRCADVLTALGIAKGDRVALLMPNSVEFCCLFYGAAKLGAVAVPINTRLAAPEVSFILSDSGSKVVIYGAPSAPVIDAIRAQADPPGTVTDWIGADSLAERLRSAAADEPAVECGGDDNLFIMYTSGTTGHPKGVVHTHESVHSAASSWASTIDVRYRDRLLLPLPMFHVAALTTVIFSAMRGVTLISMPQFDATKVWSLIVEERVCIGGAVPAILNFMRQVPEFAELDAPDFRYFITGGAPMPEALIKIYAAKNIEVVQGYALTESCGGGTLLLSEDALRKAGSAGRATMFTDVAVRGDDGVIREHGEGEVVIKSDILLKEYWNRPEATRDAFDNGWFRTGDIGEIDDEGYLYIKDRLKDMIISGGENVYPAEIESVIIGVPGVSEVAVIGLPDEKWGEIAAAIVVADQNEVSEQQIVEYCGTRLARYKLPKKVIFAEAIPRNPTGKILKTVLREQYSATVPK", "notes": "also called native FadD13; NP; not shown: His6, N-terminal, kept"}}, "biological_target": "the molecule itself", "assay": "SEC", "data": [{"protein": "B1", "values": [{"measurement": "stoichiometry N", "value": 2}]}]}
